Assay results: paper PMC5942583 (Nature structural & molecular biology, 2018)

Biological target: 15N-labeled WT 2N4R tau (microtubule-associated protein tau, longest adult isoform) (human, UniProt P10636-8 1-441, 15N-labeled)
Experiment: NMR titration

B1: DnaJA2 (natural protein)
chain: not shown
binding result: binds
